Measurements: patent publication US20220119825A1, “SCALABLE PEPTIDE-GPCR INT[…] SYSTEMS” (THE TRUSTEES OF COLUMBIA UNIVERSITY IN THE CITY OF NEW YORK, priority 2019, published 2022)

How the values were obtained:
Assay in all cases: cell-based or functional assay
[1] = target: T1, Sca.Ste2, Ste2-like mating GPCR, code Sca (Saccharomyces castellii (Table 3 prints …))
T1 chain: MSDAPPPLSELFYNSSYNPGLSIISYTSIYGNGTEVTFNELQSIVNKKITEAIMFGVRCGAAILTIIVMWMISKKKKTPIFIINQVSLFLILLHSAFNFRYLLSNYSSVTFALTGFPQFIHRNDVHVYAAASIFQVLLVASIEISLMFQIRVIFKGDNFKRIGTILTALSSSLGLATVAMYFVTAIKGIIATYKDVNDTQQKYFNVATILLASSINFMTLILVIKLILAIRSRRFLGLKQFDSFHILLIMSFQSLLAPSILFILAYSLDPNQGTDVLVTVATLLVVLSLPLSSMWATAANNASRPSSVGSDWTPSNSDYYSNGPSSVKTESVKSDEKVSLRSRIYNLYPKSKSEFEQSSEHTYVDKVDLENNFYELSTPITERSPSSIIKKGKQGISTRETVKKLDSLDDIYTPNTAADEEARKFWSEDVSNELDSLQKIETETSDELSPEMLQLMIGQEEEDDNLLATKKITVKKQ

[2] = target: T2, Ss.Ste2, Ste2-like mating GPCR of Scheffersomyces stipitis (Scheffersomyces stipitis)
T2 chain: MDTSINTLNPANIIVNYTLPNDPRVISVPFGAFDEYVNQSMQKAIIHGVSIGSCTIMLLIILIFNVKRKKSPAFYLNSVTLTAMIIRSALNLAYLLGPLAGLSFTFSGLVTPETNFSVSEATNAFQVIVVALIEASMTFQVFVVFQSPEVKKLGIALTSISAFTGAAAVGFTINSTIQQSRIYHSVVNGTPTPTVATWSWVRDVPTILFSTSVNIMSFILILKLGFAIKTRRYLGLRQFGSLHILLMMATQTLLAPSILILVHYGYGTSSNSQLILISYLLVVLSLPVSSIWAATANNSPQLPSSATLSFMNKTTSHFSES

[3] = target: T3, Pd.Ste2, Ste2-like mating GPCR of Pseudogymnoascus destructans (Pseudogymnoascus destructans)
T3 chain: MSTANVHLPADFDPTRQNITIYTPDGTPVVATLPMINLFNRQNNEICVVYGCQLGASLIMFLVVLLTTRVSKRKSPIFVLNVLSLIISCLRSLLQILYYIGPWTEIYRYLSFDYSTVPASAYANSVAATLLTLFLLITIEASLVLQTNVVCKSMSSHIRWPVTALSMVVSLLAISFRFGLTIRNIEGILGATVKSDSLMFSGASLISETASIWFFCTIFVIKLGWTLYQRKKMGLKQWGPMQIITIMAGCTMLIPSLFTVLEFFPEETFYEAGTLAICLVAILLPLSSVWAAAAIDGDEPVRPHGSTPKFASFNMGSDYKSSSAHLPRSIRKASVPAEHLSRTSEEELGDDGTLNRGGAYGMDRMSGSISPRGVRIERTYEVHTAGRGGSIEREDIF

[4] = target: T4, Pr.Ste2, Ste2-like mating GPCR of Penicillium chrysogenum (Penicillium chrysogenum)
T4 chain: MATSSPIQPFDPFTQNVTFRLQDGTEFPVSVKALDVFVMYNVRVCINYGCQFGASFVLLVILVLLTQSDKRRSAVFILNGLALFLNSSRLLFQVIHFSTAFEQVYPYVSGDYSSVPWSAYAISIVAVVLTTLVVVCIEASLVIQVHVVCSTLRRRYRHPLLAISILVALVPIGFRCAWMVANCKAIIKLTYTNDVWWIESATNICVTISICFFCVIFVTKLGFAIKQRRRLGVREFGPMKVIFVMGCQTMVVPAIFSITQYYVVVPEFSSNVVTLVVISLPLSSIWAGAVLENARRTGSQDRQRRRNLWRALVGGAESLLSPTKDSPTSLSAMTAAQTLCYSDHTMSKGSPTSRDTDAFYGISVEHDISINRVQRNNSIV

[5] = target: T5, Bm.Ste2, Ste2-like mating GPCR of Baudoinia compniacensis (Baudoinia compniacensis)
T5 chain: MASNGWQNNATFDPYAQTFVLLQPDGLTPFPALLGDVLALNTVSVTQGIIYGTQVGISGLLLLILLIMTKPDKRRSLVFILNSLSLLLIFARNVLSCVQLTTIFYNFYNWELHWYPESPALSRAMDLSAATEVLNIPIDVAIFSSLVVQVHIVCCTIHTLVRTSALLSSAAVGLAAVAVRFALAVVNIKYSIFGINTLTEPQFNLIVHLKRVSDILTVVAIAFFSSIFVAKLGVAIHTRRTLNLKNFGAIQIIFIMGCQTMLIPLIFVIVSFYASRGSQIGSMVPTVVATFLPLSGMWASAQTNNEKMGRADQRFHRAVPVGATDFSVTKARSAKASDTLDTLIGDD

B1: Sca peptide ligand #1 NWHWLRLDPGQPLY (peptide)
peptide: NWHWLRLDPGQPLY
[1]
  Bttm (FUS1p-RFP reporter): 24.3 fluorescence/A600 (not printed)
  EC50 (FUS1p-RFP reporter): -8.1 log10 M (not printed)
  Fold Change (FUS1p-RFP reporter): 6.4 fold
  Span (FUS1p-RFP reporter): 131 fluorescence/A600 (not printed)
  Top (FUS1p-RFP reporter): 155 fluorescence/A600 (not printed)

B2: Ss peptide ligand #1 WHWTSYGVFEPG (peptide)
peptide: WHWTSYGVFEPG
[2]
  Bttm (FUS1p-RFP reporter): 23 fluorescence/A600 (not printed)
  EC50 (FUS1p-RFP reporter): -7.9 log10 M (not printed)
  Fold Change (FUS1p-RFP reporter): 13.8 fold
  Span (FUS1p-RFP reporter): 295 fluorescence/A600 (not printed)
  Top (FUS1p-RFP reporter): 318 fluorescence/A600 (not printed)

B3: Pd peptide ligand #1 FCWRPGQPCG (peptide)
peptide: FCWRPGQPCG
[3]
  Bttm (FUS1p-RFP reporter): 28.8 fluorescence/A600 (not printed)
  EC50 (FUS1p-RFP reporter): -7.7 log10 M (not printed)
  Fold Change (FUS1p-RFP reporter): 6.6 fold
  Span (FUS1p-RFP reporter): 161 fluorescence/A600 (not printed)
  Top (FUS1p-RFP reporter): 190 fluorescence/A600 (not printed)

B4: Pr peptide ligand #1 WCGHIGQGC (peptide)
peptide: WCGHIGQGC
[4]
  Bttm (FUS1p-RFP reporter): 27.9 fluorescence/A600 (not printed)
  EC50 (FUS1p-RFP reporter): -5.8 log10 M (not printed)
  Fold Change (FUS1p-RFP reporter): 7.4 fold
  Span (FUS1p-RFP reporter): 179 fluorescence/A600 (not printed)
  Top (FUS1p-RFP reporter): 207 fluorescence/A600 (not printed)

B5: Bm peptide ligand #1 GWIGRCGVPGSSC (peptide)
peptide: GWIGRCGVPGSSC
[5]
  Bttm (FUS1p-RFP reporter): 30.3 fluorescence/A600 (not printed)
  EC50 (FUS1p-RFP reporter): -6.7 log10 M (not printed)
  Fold Change (FUS1p-RFP reporter): 5.2 fold
  Span (FUS1p-RFP reporter): 128 fluorescence/A600 (not printed)
  Top (FUS1p-RFP reporter): 159 fluorescence/A600 (not printed)
